Where two headings read alike, the source gives them in different places.
What was measured:
[1] = target: human CCR5 on cells (CEM.NKR-CCR5 transfectants; PM1 T cells; PBMCs; macrophages) (human) (UniProt P51681); test: flow cytometry, FITC-2D7 on PM1 cells, no treatment; isotype control subtracted
[2] = target: human CCR5 on cells (CEM.NKR-CCR5 transfectants; PM1 T cells; PBMCs; macrophages) (human) (UniProt P51681)
[3] = target: human CCR5 on cells (CEM.NKR-CCR5 transfectants; PM1 T cells; PBMCs; macrophages) (human) (UniProt P51681); test: flow cytometry, FITC-2D7 on PM1 cells after RANTES + MIP-1β (1 µg/mL each, 2 hours at 37° C.); isotype control subtracted
[4] = target: human CD4 on PM1 cells (human) (UniProt P01730); test: flow cytometry, FITC-Leu 3a on PM1 cells, no treatment; isotype control subtracted
[5] = target: human CD4 on PM1 cells (human) (UniProt P01730)
[6] = target: human CD4 on PM1 cells (human) (UniProt P01730); test: flow cytometry, FITC-Leu 3a on PM1 cells after RANTES + MIP-1β (1 µg/mL each, 2 hours at 37° C.); isotype control subtracted
[7] = target: human CCR5 on cells (CEM.NKR-CCR5 transfectants; PM1 T cells; PBMCs; macrophages) (human) (UniProt P51681); test: cell-based or functional assay

“FITC-conjugated 2D7 (anti-CCR5; Pharmingen) (antibody)” was tested, and the ΔMFC [1] was 119 ΔMFC, the ΔMFC [2] was 104 ΔMFC and the ΔMFC [3] was 35 ΔMFC.

“FITC-conjugated Leu 3a (anti-hCD4; Becton Dickinson) (antibody)” was tested, and the ΔMFC [4] was 112 ΔMFC, the ΔMFC [5] was 105 ΔMFC and the ΔMFC [6] was 109 ΔMFC.

“recombinant Plasmodium falciparum cyclophilin (PfCyp19) (enzyme)” gave an Inhibition, % of 12E1(JR-FL)/PM1 fusion, P falciparum cyclophilin at 10 µg/mL [7] of 0%.

— patent publication US7510715
